# The supplement of paper PMC12042874
# ± gives the uncertainty stated by the source.
# Assay: amyloid nucleation score (Sup35N fusion, yeast selection) (log enrichment); library NNK2; higher = more nucleation; inactive = no reads after selection
# Method in brief: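 The nucleation score, computed with DiMSum, is the log enrichment of output over input reads, centred on the mode score of non-aggregating sequences. Sequences with under 100 input reads were dropped. Reads were generated by Illumina sequencing of plasmid inserts from psi-negative yeast with Sup35N fused to peptides of 20 random codons, induced with 100 μM copper sulfate for 24 hours and grown 7 days at 30°C on medium lacking adenine and uracil.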
row,Substance,amyloid nucleation score
1,TSLDRRICKRGTVIVEIPHA,5.28 ± 0.055
2,TSNSII,-0.876 ± 0.49
3,TSPRCYRFMIQSMYGLRTRV,0.883 ± 0.17
4,TSPSKLFRDLFYHPRSKPVA,0.708 ± 0.41
5,TSSSYTWLIKSMRVFTNYNV,-1.32 ± 0.38
6,TSSWRVWAYQSAAANMHTDL,5.01 ± 0.06
7,TSVGYMMLSNW,4.88 ± 0.095
8,TSVQFCLLICLFRSTGNCAR,2.1 ± 0.1
9,TSVVFWWGKGGKVGEPNEAG,0.147 ± 1.1
10,TSWNWSFFWCTYYLFTQVRG,-0.772 ± 0.42
11,TSWVYDEYVVCLPSWASYVL,-0.509 ± 1.1
12,TSYTWDHCGGHIKSRYSGVG,inactive
13,TTDCG,-0.712 ± 0.33
14,TTEWFHESFREQFVMESFVS,-1.26 ± 0.41
15,TTGHQLNDCYLKGCFSEWIL,-0.073 ± 1
16,TTLYGGAFIGIGYVGRHTEN,3.21 ± 0.15
17,TTMCMGLLTNWWAGRCL,2.76 ± 0.1
18,TVCKPIRWLNNEFCDYVSNT,-0.644 ± 0.31
19,TVCSIMASFQYRDSRRQRSG,4.02 ± 0.078
20,TVELLGILAHCSFCS,8.247 ± 0.054
21,TVHRCD,0.627 ± 0.57
22,TVMLFVSLQRCH,inactive

row,Substance,amyloid nucleation score
1,TVRLFFLG,3.98 ± 0.11
2,TVSMLLGRRCVRFRVMVRVG,4.79 ± 0.05
3,TVSYCVAYSMQQMLS,-0.072 ± 1.1
4,TVWDLPLVAFCKHGTDHLLS,-0.121 ± 1.1
5,TWGFYAVTCLQLLPRFVKHV,-0.374 ± 0.33
6,TWGYGRDVCVRSERSGWYLS,0.859 ± 0.28
7,TWKYDRMVGKIVGLALRVVT,0.643 ± 0.43
8,TWLSCPTLNHLVTNMPWY,-0.759 ± 0.39
9,TWLSLSLYPFSKSYSISAGF,-0.321 ± 1
10,TWRIYLTQRAVTSKMYLRAS,4.74 ± 0.07
11,TWWIELVKLGEMVVK,0.313 ± 0.65
12,TYCNRLRNRLMFFLYSPTTS,-0.587 ± 0.79
13,TYDLGCDYPIVPYVNFLCM,6.59 ± 0.072
14,TYGVVK,-0.047 ± 0.17
15,TYIFSHTAGYNFG,inactive
16,TYKAAICLGCS,6.548 ± 0.033
17,TYKMKNMGICIYRYARLGDC,0.372 ± 0.74
18,TYLFYWSLGQRCMIF,inactive
19,TYNKYK,-1.08 ± 0.78
20,TYQMWLDTE,-0.445 ± 0.39
21,TYRIQRIFLPLYRWLVLLLS,-0.285 ± 0.76
22,TYRLDSWITGSRLV,-0.555 ± 0.76

row,Substance,amyloid nucleation score
1,TYSGLKNARWEFWMKSFDYF,-1.12 ± 0.5
2,TYSSNASGVTVFR,-0.772 ± 0.63
3,TYSVLRHFRRES,0.589 ± 0.31
4,TYTMGRHNFVMSLSFFSHSA,4.861 ± 0.044
5,TYYSLSLVAIMGAR,1.82 ± 0.2
6,VANDLQPWLRAVHSCFWYSS,0.896 ± 0.17
7,VAVCMWTTNVCVI,7.804 ± 0.042
8,VAWTRCSLHWLQFVLCLSGE,5.92 ± 0.041
9,VAYVKACRTSGVHQLSTDHV,1.67 ± 0.34
10,VCFVICDSPSFYV,7.901 ± 0.044
11,VCGQILDYWFVYT,0.264 ± 0.23
12,VCLCCYYIYYERFSNGFFLL,5.02 ± 0.058
13,VCLMLS,-0.573 ± 1.1
14,VCSKHD,-0.78 ± 1.1
15,VCSTEV,0.32 ± 0.74
16,VCTLRVSDNNLEKKSVLYMR,3.97 ± 0.047
17,VCVFEARVFSKLFVY,inactive
18,VCWLLGSGFWAS,inactive
19,VDDFELMLYAMVVNGLELLD,-0.19 ± 1
20,VDFIKIKRIGPER,-0.709 ± 0.38
21,VDHQVFNHDHCGRIYVLCLG,-0.322 ± 0.31
22,VDICGTRGKRRYCSLRLFAW,-0.594 ± 1.1

row,Substance,amyloid nucleation score
1,VDIGENLEFCIVLSQ,-0.19 ± 0.55
2,VDILG,-0.094 ± 1
3,VDNCDLGIS,-0.861 ± 1.1
4,VDQRRVHLDERDY,-0.371 ± 0.63
5,VDTHSILASCLRVTKGVTDK,0.138 ± 1.1
6,VDVVFTSSSTSLCSLSWSGV,4.79 ± 0.099
7,VEARVHFPFWDLIEVSMYGY,-0.665 ± 0.49
8,VECIRSVLVFFVFWLRSIFA,-1.38 ± 0.55
9,VEFIVSWHGPAKRYPYATTL,0.629 ± 0.34
10,VEGRYAPKRSYVTPGWDV,-0.05 ± 0.55
11,VEGTIRKRFGVWKYVLAPWL,-0.267 ± 0.38
12,VENRMVVLRSSIAIWVSRTV,0.955 ± 0.34
13,VFAWRN,-0.347 ± 1.1
14,VFCGFDIVFCKRAFGSKIYL,-0.632 ± 1.1
15,VFCYRSDMSGTSSGGGYQM,-0.178 ± 0.29
16,VFDGVSSGTCHLCAAWSWDG,1.56 ± 0.14
17,VFDVHIYRPSVP,5.96 ± 0.069
18,VFEFVVDNHLNIRLTRGGFM,4.93 ± 0.084
19,VFFISEIRPKFFLTLPRTAL,4.87 ± 0.096
20,VFFWLQNFEVLWPMEARVWE,4.14 ± 0.096
21,VFINRFHRVMLRAVIRQGVV,0.31 ± 0.5
